Patent EP1149909A1

Molecular target: ClpA (E. coli) (UniProt P0ABH9)
Assay: cell-based or functional assay

UniProt P0ABH9, sequence (P0ABH9 whole entry): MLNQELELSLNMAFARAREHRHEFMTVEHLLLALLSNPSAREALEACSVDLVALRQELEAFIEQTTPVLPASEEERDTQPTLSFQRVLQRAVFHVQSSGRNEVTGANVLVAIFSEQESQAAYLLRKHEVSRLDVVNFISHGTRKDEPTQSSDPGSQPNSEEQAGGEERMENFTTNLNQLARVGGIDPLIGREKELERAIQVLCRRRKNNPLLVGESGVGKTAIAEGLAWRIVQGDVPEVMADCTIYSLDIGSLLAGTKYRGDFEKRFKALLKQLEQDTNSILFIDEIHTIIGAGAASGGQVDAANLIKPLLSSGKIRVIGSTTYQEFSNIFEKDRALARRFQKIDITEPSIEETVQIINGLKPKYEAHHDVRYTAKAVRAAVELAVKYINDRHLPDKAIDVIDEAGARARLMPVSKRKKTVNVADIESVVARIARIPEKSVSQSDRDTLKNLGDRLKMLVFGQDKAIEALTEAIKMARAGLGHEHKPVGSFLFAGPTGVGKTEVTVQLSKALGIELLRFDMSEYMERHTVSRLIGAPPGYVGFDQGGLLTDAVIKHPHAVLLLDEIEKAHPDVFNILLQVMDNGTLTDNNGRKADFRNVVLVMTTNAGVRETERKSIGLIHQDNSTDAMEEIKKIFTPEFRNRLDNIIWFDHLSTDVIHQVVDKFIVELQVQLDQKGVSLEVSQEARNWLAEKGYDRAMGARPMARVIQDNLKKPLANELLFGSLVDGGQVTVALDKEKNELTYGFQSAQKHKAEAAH

## ClpS
  MDH activity (reactivation of heat-aggregated malate dehydrogenase), rate and yield: > 2 fold
